± gives the standard error. Fewer inactive variants are shown than the library holds.
B1: glmS ribozyme (parent)
chain: AUAAAAGCGCCAGAACUACAGAAAUGUAGUUGACGAGGAGGAGGUUUAUCGAAUUUUCGGCGGAUGCCUCCAAA

Experiments:
Details in all cases: with glucosamine-6-phosphate
glucosamine-6-phosphate [1] = variants of: B1; assay: self-cleavage kobs at 160 uM GlcN6P; higher = faster cleavage; RNA array
Method in brief: (§1)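 Weighted Michaelis–Menten fits across concentrations supplied kcat and KM, based on kobs from one- or two-exponential decay fits to normalised per-tile medians. The data came from barcoded ribozyme variants transcribed in situ by E. coli RNA polymerase on sequenced MiSeq chips and tracked at 37 °C by a hybridised Cy3 probe. Glucosamine-6-phosphate (40 μM to 10 mM) in HEPES/KCl/Mg(OAc)2 buffer was flowed in.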

glucosamine-6-phosphate [2] = variants of: B1; assay: self-cleavage kobs at 640 uM GlcN6P; higher = faster cleavage; RNA array
Method in brief: as §1

glucosamine-6-phosphate [3] = variants of: B1; assay: self-cleavage kobs at 2500 uM GlcN6P; higher = faster cleavage; RNA array
Method in brief: as §1

glucosamine-6-phosphate [4] = variants of: B1; assay: self-cleavage kobs at 10000 uM GlcN6P; higher = faster cleavage; RNA array
Method in brief: as §1

Variant | self-cleavage kobs at 160 uM GlcN6P (glucosamine-6-phosphate [1]) [s⁻¹] | self-cleavage kobs at 640 uM GlcN6P (glucosamine-6-phosphate [2]) [s⁻¹] | self-cleavage kobs at 2500 uM GlcN6P (glucosamine-6-phosphate [3]) [s⁻¹] | self-cleavage kobs at 10000 uM GlcN6P (glucosamine-6-phosphate [4]) [s⁻¹]
AUAAAAGCGCCAGCACUACAGAAAUGUAGUUGACGAGGAGGAGGUUUUUCGAAUUUUCGUCGGAUGCCUCCAAA [A14C A48U G60U] | < 1e-05 | < 1e-05 | – | –
AUAAAAGCGCCAGCACUACAGAAAUGUAGUUGACGAGGAUGAGGUUUAUCGAAUUUUCUGUGGAUGCCUCCAAA [A14C G40U G59U C61U] | < 1e-05 | – | – | –
AUAAAAGCGCCAGCACUACAGAAAUGUAGUUCACUAGGAGGAGGUUUAUCGAAUUUACGGCGGAUGCCUCCAAA [A14C G32C G35U U57A] | < 1e-05 | < 1e-05 | – | –
AUAAAAGCGCCAUAACUACAGAAAUGUAGUUGACGACGAGGAGGCUUAUCGAAUUUUCGGCGGAUGCUUCCAAA [G13U G37C U45C C68U] | < 1e-05 | – | < 1e-05 | –
AUAAAAGCGCCAGCACUACAGAAAUGUAGUUGAAGAGGAGGAGGUUUCUCGAAUUUUCGGGGGAUGCCUCCAAA [A14C C34A A48C C61G] | < 1e-05 | – | < 1e-05 | < 1e-05
AUAAAAGCGCCAUAACUACAGAAAUGUAGUUGACCAGGAGGAGGUUUAUCGAAUUUUCGGCGGUUGCCUCCAAA [G13U G35C A64U] | < 1e-05 | < 1e-05 | < 1e-05 | –
AUAAAAGCGCCAGCACUACAGAAAUGUAGUUGACGGGGAGGAGGUGUAUCGAAUUUUCGGCGGAAGCCUCCAAA [A14C A36G U46G U65A] | < 1e-05 | < 1e-05 | – | –
AUAAAAGCGCCAGCACUACAGAAAUGUAGUUGACGAGGAGGAGGUUUAUCGAACUUACGACGGAUGCCUUCAAA [A14C U54C U57A G60A C70U] | < 1e-05 | < 1e-05 | < 1e-05 | –
AUAAAAGCGCCAUAACUACAGAAAUGUAGUUGACCAGGAGGAGGUUUAUCCAAAUUUCGGCGGAUGCCUUCAAA [G13U G35C G51C U54A C70U] | < 1e-05 | – | < 1e-05 | –
AUAAAAGCGCCAUAACUACAGAAAUGUAGUUGACGAGGAGGAGGUUGAUCGCAUUUUCGGCGGAUGCCUCCAAA [G13U U47G A52C] | < 1e-05 | – | < 1e-05 | –
AUAAAAGCGCCAGCACUACAGAAAUGUAAUUGACGAGGAGGAGGUUUAUCGAAUUCGCGGCGGAUGCCUCCAAA [A14C G29A U56C U57G] | < 1e-05 | < 1e-05 | – | –
AUAAAAGCGCCAGCAAUACAGAAAUGUAGUCGACCAGGAGGAGGUUUAUCGAAUGUUCGGCGGAUGCCUCCAAA [A14C C16A U31C G35C U55G] | < 1e-05 | – | < 1e-05 | < 1e-05
AUAAAAGCGCCAGCACUACAGAAAUGUAGUUGACGAGGAGGAGGUUAAUCGAAUUUUGGGCGGAUGGCCCCAAA [A14C U47A C58G C67G U69C] | 7.17e-05 ± 3.1e-05 | 9.78e-05 ± 3.1e-05 | – | –
AUAAAAGCGCCAGCACUACAGAAAUGUAGUUGACGAGCAGGAGGUUUAUCGAAUUUUCGGCGGAUGCCUCCAAA [A14C G38C] | < 1e-05 | < 1e-05 | < 1e-05 | < 1e-05
AUAAAAGCGCCAUAACUACAGAAAUGUAGUUGACGAGGAGGAGUUUUAUCGAAUUUUCGGCGGAUGCCUCCAAA [G13U G44U] | < 1e-05 | – | – | –
AUAAAAGCGCCAGCAGUACAGAAAUGUAGUUGACGAGAAGGAGGUUUGACGAAUUUUCGGCGGAUGCCUCCAAA [A14C C16G G38A A48G U49A] | < 1e-05 | – | – | –
AUAAAAGCGCCAGCACUACAGAAAUGUAUUUGACGAGGAGGAGGUUUAUUGGAUUUUGGGCGGAUGCCUCCAAA [A14C G29U C50U A52G C58G] | 0.000474 ± 0.00018 | – | 7.98e-05 ± 3.9e-05 | –

Reference: the supplement of paper PMC7125110
